Experiments:
Test in all cases: cell-based or functional assay
[1] = biological target: PIM1 Pim-1 oncogene (UniProt P11309 1-313, limits assumed)
[2] = biological target: TEK (Tie2) Tyrosine kinase, endothelial (UniProt Q02763 771-1124, limits assumed)
[3] = biological target: MAPK14 (p38 alpha) Mitogen-activated protein kinase 14 (UniProt Q16539 1-360)
[4] = biological target: MYLK2 (skMLCK) (UniProt Q9H1R3 1-596, limits assumed)
[5] = biological target: AKT2 (PKB beta) (human (printed as (h)), UniProt P31751 1-481, limits assumed)
[6] = biological target: RPS6KA6 (RSK4) (UniProt Q9UK32 1-745, limits assumed)
Sequence of RPS6KA6 (RSK4) (Q9UK32 whole entry): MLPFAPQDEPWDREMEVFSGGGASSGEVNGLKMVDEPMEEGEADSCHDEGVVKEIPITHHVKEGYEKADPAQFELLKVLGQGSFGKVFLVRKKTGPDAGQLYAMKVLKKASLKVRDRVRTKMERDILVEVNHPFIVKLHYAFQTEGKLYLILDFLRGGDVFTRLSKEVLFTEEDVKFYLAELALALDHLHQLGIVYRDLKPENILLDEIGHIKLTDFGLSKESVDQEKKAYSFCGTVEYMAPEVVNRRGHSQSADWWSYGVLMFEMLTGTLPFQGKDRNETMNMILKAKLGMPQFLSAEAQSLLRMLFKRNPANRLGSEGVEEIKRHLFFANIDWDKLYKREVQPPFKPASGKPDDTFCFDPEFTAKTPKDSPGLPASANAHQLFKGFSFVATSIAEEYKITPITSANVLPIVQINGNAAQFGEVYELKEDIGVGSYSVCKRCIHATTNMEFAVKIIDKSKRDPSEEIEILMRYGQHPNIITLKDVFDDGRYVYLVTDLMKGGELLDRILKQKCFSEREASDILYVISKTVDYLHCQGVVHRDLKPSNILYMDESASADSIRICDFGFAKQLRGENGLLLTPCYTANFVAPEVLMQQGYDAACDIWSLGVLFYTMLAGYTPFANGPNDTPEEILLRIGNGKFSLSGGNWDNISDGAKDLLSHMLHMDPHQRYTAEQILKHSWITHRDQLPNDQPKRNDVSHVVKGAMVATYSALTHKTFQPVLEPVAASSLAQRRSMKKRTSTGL

[7] = biological target: T1, NEK1 NIMA (never in mitosis gene a)-related kinase 1 (UniProt Q96PY6 1-505, limits assumed)
T1 sequence (looked up): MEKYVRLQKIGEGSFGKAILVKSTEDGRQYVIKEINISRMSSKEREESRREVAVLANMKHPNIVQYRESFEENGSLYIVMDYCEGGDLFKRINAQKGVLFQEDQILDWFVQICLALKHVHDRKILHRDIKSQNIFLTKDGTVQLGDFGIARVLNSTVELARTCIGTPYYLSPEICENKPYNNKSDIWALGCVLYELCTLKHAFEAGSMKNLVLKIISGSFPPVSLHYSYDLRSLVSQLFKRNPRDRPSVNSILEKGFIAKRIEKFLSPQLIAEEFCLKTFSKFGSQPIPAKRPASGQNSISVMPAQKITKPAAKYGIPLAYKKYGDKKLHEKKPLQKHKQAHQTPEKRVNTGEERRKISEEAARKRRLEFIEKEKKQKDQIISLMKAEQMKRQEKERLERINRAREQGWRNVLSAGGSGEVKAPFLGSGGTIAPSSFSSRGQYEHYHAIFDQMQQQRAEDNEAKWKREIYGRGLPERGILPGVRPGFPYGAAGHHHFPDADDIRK

[8] = biological target: NEK6 NIMA (never in mitosis gene a)-related kinase 6 (UniProt Q9HC98 1-313, limits assumed)
Sequence of NEK6 NIMA (never in mitosis gene a)-related kinase 6 (Q9HC98 whole entry): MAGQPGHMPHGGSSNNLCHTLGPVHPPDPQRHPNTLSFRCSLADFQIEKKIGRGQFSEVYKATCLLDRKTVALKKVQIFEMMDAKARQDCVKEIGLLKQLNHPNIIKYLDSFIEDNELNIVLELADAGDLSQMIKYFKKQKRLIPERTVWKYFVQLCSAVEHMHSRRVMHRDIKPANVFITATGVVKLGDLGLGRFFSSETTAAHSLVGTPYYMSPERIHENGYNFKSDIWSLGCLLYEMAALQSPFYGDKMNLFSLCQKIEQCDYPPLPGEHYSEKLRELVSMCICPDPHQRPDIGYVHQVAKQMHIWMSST

[9] = biological target: PHKG1 (UniProt Q16816 1-387, limits assumed)
Sequence of PHKG1 (Q16816 whole entry): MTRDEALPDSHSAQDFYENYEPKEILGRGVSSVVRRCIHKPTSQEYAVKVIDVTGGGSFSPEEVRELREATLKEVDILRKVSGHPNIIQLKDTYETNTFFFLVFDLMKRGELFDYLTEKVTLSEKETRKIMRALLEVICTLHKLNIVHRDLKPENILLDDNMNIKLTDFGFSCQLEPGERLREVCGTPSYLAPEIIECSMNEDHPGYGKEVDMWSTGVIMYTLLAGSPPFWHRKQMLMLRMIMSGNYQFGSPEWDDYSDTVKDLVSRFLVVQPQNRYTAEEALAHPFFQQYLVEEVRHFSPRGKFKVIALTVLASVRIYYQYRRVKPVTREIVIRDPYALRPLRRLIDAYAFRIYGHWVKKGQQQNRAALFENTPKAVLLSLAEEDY

[10] = biological target: PRKCB2 (PKC beta II) (human (printed as (h)), UniProt P05771-2 1-673)
Sequence of PRKCB2 (PKC beta II) (human (printed as (h)), UniProt P05771-2 1-673) (P05771 other isoform, or with tags, fused parts or gaps limits assumed): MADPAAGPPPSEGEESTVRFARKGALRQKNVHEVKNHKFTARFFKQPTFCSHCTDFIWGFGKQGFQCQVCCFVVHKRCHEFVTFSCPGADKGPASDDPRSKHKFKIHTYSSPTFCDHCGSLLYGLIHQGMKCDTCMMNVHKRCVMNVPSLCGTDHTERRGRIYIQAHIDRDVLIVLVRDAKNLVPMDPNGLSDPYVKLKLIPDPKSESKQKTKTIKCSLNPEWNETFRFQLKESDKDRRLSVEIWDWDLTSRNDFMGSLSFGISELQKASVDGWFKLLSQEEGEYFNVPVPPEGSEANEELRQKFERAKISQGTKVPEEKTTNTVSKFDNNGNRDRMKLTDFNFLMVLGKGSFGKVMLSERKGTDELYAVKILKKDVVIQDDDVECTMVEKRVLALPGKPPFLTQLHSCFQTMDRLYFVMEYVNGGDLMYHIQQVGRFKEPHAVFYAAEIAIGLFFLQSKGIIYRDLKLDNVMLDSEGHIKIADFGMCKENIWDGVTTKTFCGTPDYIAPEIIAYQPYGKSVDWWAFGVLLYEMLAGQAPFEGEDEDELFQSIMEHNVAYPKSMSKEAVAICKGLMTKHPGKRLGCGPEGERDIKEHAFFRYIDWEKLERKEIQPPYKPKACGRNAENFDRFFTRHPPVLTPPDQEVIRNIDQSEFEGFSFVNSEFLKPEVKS

[11] = biological target: T2, IRAK4 (interleukin-1 receptor-associated kinase 4) (UniProt Q9NWZ3 1-460, limits assumed)
T2 sequence (looked up): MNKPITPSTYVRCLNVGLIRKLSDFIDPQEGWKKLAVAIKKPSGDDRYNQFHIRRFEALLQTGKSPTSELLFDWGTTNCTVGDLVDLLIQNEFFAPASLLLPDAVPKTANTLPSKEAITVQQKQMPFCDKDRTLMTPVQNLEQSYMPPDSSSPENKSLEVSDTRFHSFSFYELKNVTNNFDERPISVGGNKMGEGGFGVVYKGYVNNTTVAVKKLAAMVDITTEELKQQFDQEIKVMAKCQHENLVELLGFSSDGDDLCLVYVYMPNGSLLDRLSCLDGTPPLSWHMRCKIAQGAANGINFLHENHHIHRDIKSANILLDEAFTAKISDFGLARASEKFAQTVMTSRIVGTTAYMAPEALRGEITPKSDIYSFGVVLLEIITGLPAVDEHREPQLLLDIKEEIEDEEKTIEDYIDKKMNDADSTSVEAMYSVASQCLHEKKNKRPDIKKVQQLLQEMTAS

[12] = biological target: CAMK1D (CaMKI delta) Calcium/calmodulin-dependent protein kinase I delta (UniProt Q8IU85 1-385, limits assumed)
Sequence of CAMK1D (CaMKI delta) Calcium/calmodulin-dependent protein kinase I delta (Q8IU85 whole entry, stated change not applied): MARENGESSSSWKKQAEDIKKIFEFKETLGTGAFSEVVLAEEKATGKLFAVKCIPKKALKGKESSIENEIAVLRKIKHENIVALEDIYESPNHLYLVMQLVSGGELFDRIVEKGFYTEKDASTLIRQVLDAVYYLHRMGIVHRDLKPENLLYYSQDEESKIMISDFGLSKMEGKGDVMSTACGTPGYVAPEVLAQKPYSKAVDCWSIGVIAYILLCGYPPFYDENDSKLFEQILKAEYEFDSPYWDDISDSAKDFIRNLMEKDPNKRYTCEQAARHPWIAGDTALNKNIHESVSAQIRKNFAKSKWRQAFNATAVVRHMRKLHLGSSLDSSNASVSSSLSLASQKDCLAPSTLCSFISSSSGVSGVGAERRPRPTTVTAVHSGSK

[13] = biological target: MAPKAPK3 (UniProt Q16644 1-382, limits assumed)
[14] = biological target: MAPK10 (JNK3) Mitogen-activated protein kinase 10 (UniProt P53779 1-464, limits assumed)
Sequence of MAPK10 (JNK3) Mitogen-activated protein kinase 10 (P53779 whole entry): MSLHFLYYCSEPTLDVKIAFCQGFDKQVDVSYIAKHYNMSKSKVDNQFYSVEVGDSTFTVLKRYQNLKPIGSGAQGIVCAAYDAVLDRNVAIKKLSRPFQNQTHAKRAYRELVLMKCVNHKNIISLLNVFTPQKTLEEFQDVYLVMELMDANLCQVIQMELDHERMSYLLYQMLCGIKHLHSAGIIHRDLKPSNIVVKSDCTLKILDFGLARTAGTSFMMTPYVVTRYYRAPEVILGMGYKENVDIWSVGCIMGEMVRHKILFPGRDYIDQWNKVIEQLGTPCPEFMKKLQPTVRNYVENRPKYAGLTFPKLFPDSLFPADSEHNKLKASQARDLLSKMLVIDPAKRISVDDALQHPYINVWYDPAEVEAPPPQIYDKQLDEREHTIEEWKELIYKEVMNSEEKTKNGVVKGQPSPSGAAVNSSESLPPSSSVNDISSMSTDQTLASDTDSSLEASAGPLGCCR

[15] = biological target: T3, STK3 (MST2) Serine/threonine kinase 3 (STE20 homolog, yeast) (UniProt Q13188 1-491, limits assumed)
T3 sequence (looked up): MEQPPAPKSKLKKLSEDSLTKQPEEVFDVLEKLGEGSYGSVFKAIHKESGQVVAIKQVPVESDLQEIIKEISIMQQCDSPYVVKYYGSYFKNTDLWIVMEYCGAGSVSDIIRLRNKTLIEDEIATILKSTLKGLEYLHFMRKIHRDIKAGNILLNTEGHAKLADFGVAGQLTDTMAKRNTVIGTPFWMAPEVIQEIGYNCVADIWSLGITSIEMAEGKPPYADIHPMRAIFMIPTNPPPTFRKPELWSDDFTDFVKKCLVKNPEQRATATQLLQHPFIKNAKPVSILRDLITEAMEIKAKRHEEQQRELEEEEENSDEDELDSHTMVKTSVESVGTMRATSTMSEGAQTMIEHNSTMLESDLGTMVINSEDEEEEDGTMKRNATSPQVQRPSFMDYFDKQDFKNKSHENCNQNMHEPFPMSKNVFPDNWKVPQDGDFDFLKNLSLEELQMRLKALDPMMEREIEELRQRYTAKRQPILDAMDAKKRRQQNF

[16] = biological target: MAPK8 (JNK1) Mitogen-activated protein kinase 8 (UniProt P45983 1-427, limits assumed)
Sequence of MAPK8 (JNK1) Mitogen-activated protein kinase 8 (P45983 whole entry): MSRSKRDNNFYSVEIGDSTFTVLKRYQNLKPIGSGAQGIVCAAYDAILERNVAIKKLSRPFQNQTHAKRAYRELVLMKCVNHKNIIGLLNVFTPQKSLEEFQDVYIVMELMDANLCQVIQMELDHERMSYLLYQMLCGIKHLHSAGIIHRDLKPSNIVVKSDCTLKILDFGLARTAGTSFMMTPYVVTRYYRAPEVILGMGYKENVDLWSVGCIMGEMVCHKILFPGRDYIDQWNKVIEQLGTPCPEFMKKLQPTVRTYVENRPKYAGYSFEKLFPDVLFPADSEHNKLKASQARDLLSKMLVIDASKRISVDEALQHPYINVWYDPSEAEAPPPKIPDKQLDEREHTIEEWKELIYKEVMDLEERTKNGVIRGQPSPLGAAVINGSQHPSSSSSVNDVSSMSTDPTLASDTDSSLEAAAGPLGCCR

[17] = biological target: GRK5 (UniProt P34947 1-590, limits assumed)
[18] = biological target: MAP4K5 (KHS1) (UniProt Q9Y4K4 1-846, limits assumed)

Sequence of MYLK2 (skMLCK) (Q9H1R3 whole entry): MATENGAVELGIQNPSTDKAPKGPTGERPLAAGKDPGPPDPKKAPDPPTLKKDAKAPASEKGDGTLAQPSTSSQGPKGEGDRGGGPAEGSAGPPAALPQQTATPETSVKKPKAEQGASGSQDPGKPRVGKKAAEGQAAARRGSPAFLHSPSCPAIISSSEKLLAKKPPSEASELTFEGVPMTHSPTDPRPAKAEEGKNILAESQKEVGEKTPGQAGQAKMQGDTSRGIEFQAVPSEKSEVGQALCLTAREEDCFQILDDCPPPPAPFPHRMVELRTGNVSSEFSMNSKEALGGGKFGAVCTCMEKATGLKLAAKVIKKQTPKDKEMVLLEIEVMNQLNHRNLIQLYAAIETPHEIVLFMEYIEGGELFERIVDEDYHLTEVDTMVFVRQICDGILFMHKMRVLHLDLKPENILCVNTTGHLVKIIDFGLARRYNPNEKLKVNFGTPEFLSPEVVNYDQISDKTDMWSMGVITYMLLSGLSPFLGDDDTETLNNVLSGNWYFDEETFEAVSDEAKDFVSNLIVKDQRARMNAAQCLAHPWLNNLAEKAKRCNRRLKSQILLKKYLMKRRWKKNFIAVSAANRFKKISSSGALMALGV
Sequence of TEK (Tie2) Tyrosine kinase, endothelial (Q02763 771-1124 limits assumed): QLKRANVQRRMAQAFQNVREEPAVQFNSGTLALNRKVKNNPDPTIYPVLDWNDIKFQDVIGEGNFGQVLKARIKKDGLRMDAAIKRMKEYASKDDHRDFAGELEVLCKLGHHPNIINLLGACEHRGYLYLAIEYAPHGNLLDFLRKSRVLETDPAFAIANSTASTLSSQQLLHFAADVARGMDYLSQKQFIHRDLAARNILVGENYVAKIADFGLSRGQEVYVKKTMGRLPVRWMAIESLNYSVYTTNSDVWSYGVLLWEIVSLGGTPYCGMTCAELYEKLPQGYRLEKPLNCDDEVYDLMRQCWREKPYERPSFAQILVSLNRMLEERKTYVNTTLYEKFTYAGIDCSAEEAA
Sequence of PIM1 Pim-1 oncogene (P11309 whole entry): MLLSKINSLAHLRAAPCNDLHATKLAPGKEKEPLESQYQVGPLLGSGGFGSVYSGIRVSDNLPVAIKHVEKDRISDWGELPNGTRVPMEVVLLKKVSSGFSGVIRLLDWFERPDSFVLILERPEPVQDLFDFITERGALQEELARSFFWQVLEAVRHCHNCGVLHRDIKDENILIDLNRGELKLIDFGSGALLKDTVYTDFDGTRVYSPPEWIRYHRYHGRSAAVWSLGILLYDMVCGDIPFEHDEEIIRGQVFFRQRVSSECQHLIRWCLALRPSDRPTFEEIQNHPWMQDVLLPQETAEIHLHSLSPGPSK

Binder: SGRPPMIVWFNRPFLIAVSHTHGQTILFMAKVINPVGA [D3 peptide]
- % Inhibition mean [1]: 89%
- % Inhibition mean [2]: 67%
- % Inhibition mean [3]: 83%
- % Inhibition mean [4]: 64.6%
- % Inhibition mean [5]: 67.7%
- % Inhibition mean [6]: 87.6%
- % Inhibition mean [7]: 84%
- % Inhibition mean [8]: 97.4%
- % Inhibition mean [9]: 54.8%
- % Inhibition mean [10]: 61.6%
- % Inhibition mean [11]: 96%
- % Inhibition mean [12]: 98%
- % Inhibition mean [13]: 64.1%
- % Inhibition mean [14]: 90.7%
- % Inhibition mean [15]: 90.4%
- % Inhibition mean [16]: 89%
- % Inhibition mean [17]: 50.8%
- % Inhibition mean [18]: 86.3%
